Source: US20240287189A1 (SPARX BIOSCIENCE, published 2024)

How the values were obtained:
[1] = molecular target: T1, PDL1 expressed on MDA MB-231 human breast cancer cells (human, UniProt Q9NZQ7 19-290); assay: flow cytometry on MDA MB-231 cells, anti-human IgG Fc secondary antibody
T1 construct: whole, on cells; also called MDA MB-231 cells

[2] = molecular target: PDL1 on PDL1 aAPC/CHOK1 cells (UniProt Q9NZQ7 19-290, limits assumed); assay: cell-based or functional assay
[3] = molecular target: T2, human PD-L1 (recombinant protein, coated and in solution in the phage ELISA) (human, UniProt Q9NZQ7 19-239); assay: competitive phage ELISA, Fab on phage, soluble PD-L1 against coated PD-L1
T2 construct: It is probably the same Met1-Thr239 extracellular segment that was used for selection; also called CD274; B7 homolog 1

[4] = molecular target: T2, human PD-L1 (recombinant protein, …); assay: competitive phage ELISA, ratio to 12A4 parent clone

Binder | Kd [1] | EC50, luminescent signal in PDL1/PD1 blockage bioassay [2] | Kd [3] | Improvement from 12A4 Parent Clone [4]
anti-PDL1 monoclonal antibody 12A4bad (antibody, V domains shown, also called PDL1 antibody 12A4bad) VH: QVQLVQSGAEVKKPGSSVKVSCKTSGDTFSTYAISWVRQAPGQGLEWMGGIIPLFGKAHYAQKFQGRVTITADESTSTAYMELSSLRSEDTAVYFCARKFHFVRGSPFGMDVWGQGTTVTVSS VL: EIVLTQSPATLSLSPGERATLSCRASQSVSSYLAWYQQKPGQAPRLLIYDASNRAPGIPARFSGSGSGTDFTLTISSLEPEDFAVYYCQQRSNWPTFGQGTKVEIK | 0.0778 nM | 0.344 nM |  | 
12A4a Fab displayed on phage (Fab, V domains shown) VH: QVQLVQSGAEVKKPGSSVKVSCKTSGDTFSTYAISWVRQAPGQGLEWMGGIIPIFGKAHYAQKFQGRVTITADESTSTAYMELSSLRSEDTAVYFCARKFHFVSGSPFGMDVWGQGTTVTVSS VL: EIVLTQSPATLSLSPGERATLSCRASQSVSSYLAWYQQKPGQAPRLLIYDASNRAPGIPARFSGSGSGTDFTLTISSLEPEDFAVYYCQQRSNWPTFGQGTKVEIK |  |  | 8.3 nM | 1.3 fold
12A4ad Fab displayed on phage (Fab, V domains shown) VH: QVQLVQSGAEVKKPGSSVKVSCKTSGDTFSTYAISWVRQAPGQGLEWMGGIIPLFGKAHYAQKFQGRVTITADESTSTAYMELSSLRSEDTAVYFCARKFHFVSGSPFGMDVWGQGTTVTVSS VL: EIVLTQSPATLSLSPGERATLSCRASQSVSSYLAWYQQKPGQAPRLLIYDASNRAPGIPARFSGSGSGTDFTLTISSLEPEDFAVYYCQQRSNWPTFGQGTKVEIK |  |  | 5 nM | 
12A4b Fab displayed on phage (Fab, V domains shown) VH: QVQLVQSGAEVKKPGSSVKVSCKTSGDTFSTYAISWVRQAPGQGLEWMGGIIPIFGKAHYAQKFQGRVTITADESTSTAYMELSSLRSEDTAVYFCARKFHFVRGSPFGMDVWGQGTTVTVSS VL: not shown |  |  |  | 3.3 fold
12A4bad Fab displayed on phage (Fab, V domains shown) VH: QVQLVQSGAEVKKPGSSVKVSCKTSGDTFSTYAISWVRQAPGQGLEWMGGIIPLFGKAHYAQKFQGRVTITADESTSTAYMELSSLRSEDTAVYFCARKFHFVRGSPFGMDVWGQGTTVTVSS VL: EIVLTQSPATLSLSPGERATLSCRASQSVSSYLAWYQQKPGQAPRLLIYDASNRAPGIPARFSGSGSGTDFTLTISSLEPEDFAVYYCQQRSNWPTFGQGTKVEIK |  |  | 1.5 nM | 7.5 fold
12A4bd Fab displayed on phage (Fab, V domains shown) VH: QVQLVQSGAEVKKPGSSVKVSCKTSGDTFSTYAISWVRQAPGQGLEWMGGIIPLFGKAHYAQKFQGRVTITADESTSTAYMELSSLRSEDTAVYFCARKFHFVRGSPFGMDVWGQGTTVTVSS VL: not shown |  |  | 1.8 nM | 6.3 fold
